Measured values as given in publication PMC2881539 (Analytical biochemistry, 2010).
One block for each molecule: values may come before it.

Assays:
Test in all cases: ELISA
Fzd5 CRD = Fzd5 CRD (UniProt Q13467); details: cited from earlier work
[1] = molecular target: T1, purified hSFRP4 (R & D Systems) (human, UniProt Q6FHJ7 19-346)
T1 sequence (looked up): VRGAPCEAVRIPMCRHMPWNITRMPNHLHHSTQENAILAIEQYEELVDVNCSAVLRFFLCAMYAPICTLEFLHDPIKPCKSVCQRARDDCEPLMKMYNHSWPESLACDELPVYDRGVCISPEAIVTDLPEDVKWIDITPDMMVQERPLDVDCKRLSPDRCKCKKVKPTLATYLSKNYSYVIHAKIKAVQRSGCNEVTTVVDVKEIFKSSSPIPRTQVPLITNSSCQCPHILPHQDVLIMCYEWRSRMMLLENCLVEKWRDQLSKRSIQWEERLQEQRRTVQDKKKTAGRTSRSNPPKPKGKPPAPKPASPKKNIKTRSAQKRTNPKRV

mWnt3a-V5/6xHis = mWnt3a-V5/6xHis (mouse, UniProt P27467 19-352)
Sequence of mWnt3a-V5/6xHis (P27467 19-352): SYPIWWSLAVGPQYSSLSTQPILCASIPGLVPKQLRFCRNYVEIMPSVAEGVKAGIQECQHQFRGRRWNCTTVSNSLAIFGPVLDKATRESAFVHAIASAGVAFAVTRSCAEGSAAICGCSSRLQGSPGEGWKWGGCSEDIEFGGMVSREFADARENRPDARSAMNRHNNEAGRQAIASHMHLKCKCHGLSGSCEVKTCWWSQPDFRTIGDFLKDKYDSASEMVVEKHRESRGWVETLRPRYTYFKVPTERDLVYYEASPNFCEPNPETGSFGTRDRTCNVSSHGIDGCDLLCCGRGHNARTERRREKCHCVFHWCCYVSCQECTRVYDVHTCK

Molecule: Wnt7a (from UniProt O00755)
Kd (Fzd5 CRD): 75.4 nM

Kd [1]: 86.5 nM
B1: rWnt7a V5/6xHis (ligand, UniProt O00755 32-349, looked up)
chain: LGASIICNKIPGLAPRQRAICQSRPDAIIVIGEGSQMGLDECQFQFRNGRWNCSALGERTVFGKELKVGSREAAFTYAIIAAGVAHAITAACTQGNLSDCGCDKEKQGQYHRDEGWKWGGCSADIRYGIGFAKVFVDAREIKQNARTLMNLHNNEAGRKILEENMKLECKCHGVSGSCTTKTCWTTLPQFRELGYVLKDKYNEAVHVEPVRASRNKRPTFLKIKKPLSYRKPMDTDLVYIEKSPNYCEEDPVTGSVGTQGRACNKTAPQASGCDLMCCGRGYNTHQYARVWQCNCKFHWCCYVKCNTCSERTEMYTCK

Kd (mWnt3a-V5/6xHis): 83.7 nM
B2: hFzd5CRD-Fc IgG (Fc fusion, human, UniProt Q13467 27-150, looked up)
chain: ASKAPVCQEITVPMCRGIGYNLTHMPNQFNHDTQDEAGLEVHQFWPLVEIQCSPDLRFFLCSMYTPICLPDYHKPLPPCRSVCERAKAGCSPLMRQYGFAWPERMSCDRLPVLGRDAEVLCMDY
